Assay results published in paper PMC11282955.

molecular target: human angiotensin-converting enzyme 2 (hACE2) (UniProt Q9BYF1); test: SPR; conditions: parent: est. 1.5 nM; read off a plot

Substance | Kd [nM]
BA.2.86 spike receptor-binding domain (RBD) D450N | 0.52
BA.2.86 spike receptor-binding domain (RBD) H445V | 0.46
BA.2.86 spike receptor-binding domain (RBD) H505Y | 0.58
BA.2.86 spike receptor-binding domain (RBD) K403R | 1
BA.2.86 spike receptor-binding domain (RBD) K481N | 0.66
BA.2.86 spike receptor-binding domain (RBD) K484A | 1.2
BA.2.86 spike receptor-binding domain (RBD) L455F; F456L | 0.8
BA.2.86 spike receptor-binding domain (RBD) L455S | 4.3
BA.2.86 spike receptor-binding domain (RBD) N354Q | 1.6
BA.2.86 spike receptor-binding domain (RBD) N417K | 0.62
BA.2.86 spike receptor-binding domain (RBD) N417K; H505Y | 0.27
BA.2.86 spike receptor-binding domain (RBD) N417K; H505Y; L455F; F456L | 0.53
BA.2.86 spike receptor-binding domain (RBD) P486F | 0.39
BA.2.86 spike receptor-binding domain (RBD) W452L | 0.58
BA.2.86 spike receptor-binding domain (RBD) ins483V | 0.88
